# Data: the supplement of paper PMC9112550, “Optimization of the antimicrobial peptide Bac7 by deep mutational scanning” (BMC Biology, 2022)
# Tested on: Escherichia coli TOP10
# Test: shrunken log2 fold change of peptide-encoding DNA abundance (4.5 h post-induction vs induction); higher = less antimicrobial activity (less host growth inhibition)
# Conditions: time post-induction: 4.5 h; library: site-saturation at positions 5, 18, 19, 20
# 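Also: peptides expressed intracellularly from a pBAD plasmid library in pooled LB shake-flask culture, induced with 0.3% L-arabinose, DNA abundance read by NGS, three biological replicates, DESeq2 with apeglm shrinkage.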
row,Sequence,shrunken log2 fold change
1,RRIRRRPPRLPRPRPRPRHFPRP,-0.156
2,RRIRWRPPRLPRPRPRPDHVPRP,-0.13
3,RRIRLRPPRLPRPRPRPPEYPRP,-0.26
4,RRIRERPPRLPRPRPRPMCCPRP,-0.113
5,RRIRVRPPRLPRPRPRPRDRPRP,0.46
6,RRIRVRPPRLPRPRPRPTMVPRP,0.0376
7,RRIRERPPRLPRPRPRPAYKPRP,-0.21
8,RRIRMRPPRLPRPRPRPDFAPRP,0.0706
9,RRIRKRPPRLPRPRPRPFYQPRP,-0.101
10,RRIRKRPPRLPRPRPRPWVDPRP,0.572
11,RRIRSRPPRLPRPRPRPEWRPRP,0.478
12,RRIRNRPPRLPRPRPRPSAQPRP,0.147
13,RRIRKRPPRLPRPRPRPNESPRP,-0.0703
14,RRIRNRPPRLPRPRPRPSYVPRP,-0.0484
15,RRIRYRPPRLPRPRPRPKKCPRP,-0.0883
16,RRIRCRPPRLPRPRPRPGIAPRP,0.201
17,RRIRKRPPRLPRPRPRPFIIPRP,-0.268
18,RRIRSRPPRLPRPRPRPIFWPRP,0.403
19,RRIRMRPPRLPRPRPRPVARPRP,0.407
20,RRIRKRPPRLPRPRPRPKQDPRP,0.119
21,RRIRLRPPRLPRPRPRPFMLPRP,-0.356
22,RRIRTRPPRLPRPRPRPNQEPRP,0.0313

row,Sequence,shrunken log2 fold change
1,RRIRVRPPRLPRPRPRPCQSPRP,0.0215
2,RRIRNRPPRLPRPRPRPPPAPRP,1.09
3,RRIRFRPPRLPRPRPRPIIKPRP,-0.696
4,RRIRERPPRLPRPRPRPNYCPRP,-0.0596
5,RRIRFRPPRLPRPRPRPPRNPRP,0.263
6,RRIRARPPRLPRPRPRPMPIPRP,0.708
7,RRIRTRPPRLPRPRPRPQDIPRP,-0.0501
8,RRIRRRPPRLPRPRPRPVLTPRP,0.386
9,RRIRERPPRLPRPRPRPTRDPRP,0.245
10,RRIRGRPPRLPRPRPRPHGCPRP,0.585
11,RRIRTRPPRLPRPRPRPGKYPRP,-0.755
12,RRIRRRPPRLPRPRPRPIMIPRP,-0.105
13,RRIRHRPPRLPRPRPRPVHNPRP,0.154
14,RRIRCRPPRLPRPRPRPKYPPRP,-0.196
15,RRIRQRPPRLPRPRPRPTLDPRP,0.476
16,RRIRHRPPRLPRPRPRPFFCPRP,-0.16
17,RRIRGRPPRLPRPRPRPAHTPRP,0.761
18,RRIRRRPPRLPRPRPRPGSCPRP,0.152
19,RRIRGRPPRLPRPRPRPPLFPRP,0.974
20,RRIRWRPPRLPRPRPRPKWHPRP,0.184
21,RRIRFRPPRLPRPRPRPEMMPRP,0.00382
22,RRIRKRPPRLPRPRPRPSWGPRP,0.00315

row,Sequence,shrunken log2 fold change
1,RRIRMRPPRLPRPRPRPIGHPRP,0.0299
2,RRIRMRPPRLPRPRPRPGSMPRP,0.668
3,RRIRARPPRLPRPRPRPWMFPRP,-0.0244
4,RRIRMRPPRLPRPRPRPAQKPRP,1.2
5,RRIRTRPPRLPRPRPRPDICPRP,0.0407
6,RRIRARPPRLPRPRPRPMPYPRP,-0.105
7,RRIRVRPPRLPRPRPRPCNEPRP,-0.0213
8,RRIRYRPPRLPRPRPRPIEKPRP,-0.203
9,RRIRGRPPRLPRPRPRPANFPRP,0.0804
10,RRIRFRPPRLPRPRPRPRGTPRP,0.294
11,RRIRYRPPRLPRPRPRPPEYPRP,0.0412
12,RRIRARPPRLPRPRPRPYHDPRP,-0.365
13,RRIRMRPPRLPRPRPRPWTHPRP,-0.136
14,RRIRRRPPRLPRPRPRPGVFPRP,0.278
15,RRIRMRPPRLPRPRPRPSSSPRP,0.0411
16,RRIRTRPPRLPRPRPRPDNNPRP,-0.48
17,RRIRNRPPRLPRPRPRPGMWPRP,0.397
18,RRIRHRPPRLPRPRPRPIGIPRP,0.0295
19,RRIRIRPPRLPRPRPRPNHKPRP,-0.857
20,RRIRWRPPRLPRPRPRPRDCPRP,0.226
21,RRIRHRPPRLPRPRPRPAMKPRP,0.0279
22,RRIRQRPPRLPRPRPRPEKHPRP,-0.214

row,Sequence,shrunken log2 fold change
1,RRIRDRPPRLPRPRPRPPGCPRP,-0.0092
2,RRIRKRPPRLPRPRPRPSLGPRP,0.343
3,RRIRCRPPRLPRPRPRPYTLPRP,-1.07
4,RRIRYRPPRLPRPRPRPLLQPRP,-0.309
5,RRIRTRPPRLPRPRPRPYAPPRP,-1.07
6,RRIRHRPPRLPRPRPRPLQTPRP,0.139
7,RRIRRRPPRLPRPRPRPRFFPRP,0.507
8,RRIRQRPPRLPRPRPRPQCFPRP,-1.14
9,RRIRLRPPRLPRPRPRPIILPRP,-1.48
10,RRIRDRPPRLPRPRPRPADSPRP,0.157
11,RRIRMRPPRLPRPRPRPVDRPRP,0.278
12,RRIRCRPPRLPRPRPRPKLSPRP,0.22
13,RRIRARPPRLPRPRPRPTLWPRP,1.05
14,RRIRFRPPRLPRPRPRPEAVPRP,0.323
15,RRIRGRPPRLPRPRPRPILGPRP,-0.0749
16,RRIRQRPPRLPRPRPRPMHLPRP,-0.157
17,RRIRCRPPRLPRPRPRPVDYPRP,-0.258
18,RRIRHRPPRLPRPRPRPNINPRP,-1.31
19,RRIRLRPPRLPRPRPRPEQLPRP,0.131
20,RRIRVRPPRLPRPRPRPGDQPRP,0.0324
21,RRIRFRPPRLPRPRPRPYASPRP,-0.0651
22,RRIRCRPPRLPRPRPRPGCKPRP,0.0416

row,Sequence,shrunken log2 fold change
1,RRIRDRPPRLPRPRPRPCRDPRP,-0.106
2,RRIRWRPPRLPRPRPRPPCKPRP,-0.0735
3,RRIRTRPPRLPRPRPRPAGQPRP,-0.109
4,RRIRVRPPRLPRPRPRPNYSPRP,-0.438
5,RRIRCRPPRLPRPRPRPIQNPRP,-0.538
6,RRIRTRPPRLPRPRPRPIEYPRP,-0.233
7,RRIRLRPPRLPRPRPRPYAVPRP,0.00157
8,RRIRQRPPRLPRPRPRPNDTPRP,-0.752
9,RRIRWRPPRLPRPRPRPFMFPRP,-0.0915
10,RRIRVRPPRLPRPRPRPISLPRP,-0.0572
11,RRIRIRPPRLPRPRPRPMLHPRP,-0.749
12,RRIRSRPPRLPRPRPRPWCTPRP,-0.255
13,RRIRRRPPRLPRPRPRPCRNPRP,0.0376
14,RRIRARPPRLPRPRPRPYHAPRP,-0.0253
15,RRIRERPPRLPRPRPRPIWQPRP,0.062
16,RRIRIRPPRLPRPRPRPKKIPRP,-0.526
17,RRIRNRPPRLPRPRPRPGVSPRP,-0.279
18,RRIRERPPRLPRPRPRPGFNPRP,0.0108
19,RRIRIRPPRLPRPRPRPWMKPRP,-0.305
20,RRIRIRPPRLPRPRPRPFVSPRP,-0.571
21,RRIRPRPPRLPRPRPRPMCVPRP,0.076
